The text below walks through data of patent US20040023887A1 (published 2004).

The term Kd denotes the concentration at which binding is half-saturated. A high value points to lower affinity.

Positions of bridges follow the written chain, without caps; N, C: chain ends. Chains are numbered I, II in the order given. No end group written: not given here.

In assay [1] the target is T1, Soluble IGF-1R (R&D Systems, Cat. # 391-GR/CF) (human, UniProt P08069 31-935).
T1 construct: extracellular domain; the precursor is cleaved into alpha and beta subunits; also called sIGF-1R
The assay is described as follows: phage ELISA, receptor coated on plate; A405 over non-fat milk.

The target in assay [2] is T2, Insulin receptor prepared according to Bass et al., 1996 (soluble IR-immunoglobulin chimera) (human, UniProt P06213 28-956).
T2 construct: extracellular domain; also called sIR-Fc; soluble IR (Bass construct); not shown: immunoglobulin constant domains replacing the transmembrane and intracellular domains
The description is as above.

The target in assay [3] is T3, human insulin receptor (HIR) (human, UniProt P06213-2 28-1370, limits assumed).
T3 construct: detergent-solubilised receptor
The assay is described as follows: 125I-insulin competition on purified HIR.

The target of assay [4] is T4, human insulin receptor (HIR) (human, UniProt P06213-2 28-1370, limits assumed).
T4 construct: Also used for the WGA-purified recombinant human insulin receptor of the kinase assay
The assay is described as follows: 125I-insulin competition on purified HIR.

In a further assay the target is Insulin Receptor (IR) (UniProt P06213 28-956, limits assumed). Briefly: BIAcore competition: IR pre-incubated with about 40 µM peptide, residual binding to immobilised insulin. The method, then:
Flowcell-1 was used for background binding to correct for any non-specific binding. […] The surface was regenerated with 25 mM NaOH.

Assay [5] deals with T5, soluble human insulin receptor-immunoglobulin heavy chain chimera (human, UniProt P06213 28-956, limits assumed).
T5 construct: extracellular domain; also called sIR-Fc; IR (prepared according to Bass et al., 1996); not shown: immunoglobulin heavy chain constant domains (Bass et al., 1996)
Briefly: phage ELISA. On the technique in general: In an ELISA, binding on a coated surface is turned into a signal by an enzyme label.

In assay [6] the target is T6, soluble IGF-1R (recombinant human IGF-1R extracellular domain, R&D Systems Cat. # 391-GR/CF) (human, UniProt P08069 31-935).
T6 construct: extracellular domain; Bought protein; coated on plates (phage ELISA, TRF) or Eu-labelled (TR-FRET); also called sIGF-1R; rhIGF-1R
The assay is described as follows: phage ELISA.

B1: B6Hα-1-B3-IR (peptide)
peptide: GCITAENGAGDPFYHKLSELGGCS
notes: library tags and phage coat protein not included
Turning to B1, the “ratio over background (IGF-1R)” value in assay [1] came to 3.2 fold over background. Besides, the “ratio over background (IR)” value in assay [2] stood at 1.1 fold over background.

B2: 20E2A-3-A3-IGFR (peptide)
peptide: GHYFGSFYDAIDQLVAGMLPG
notes: as for B1
In the case of B2, the “ratio over background (IGF-1R)” value in assay [1] stood at 3 fold over background. The “ratio over background (IR)” value in assay [2] came out at 1.5 fold over background.

On to TFYSCLASLLTGTPQPNRGPWERCRKK [S327], for which, in assay [3], the affinity, expressed as Kd, was 21 nM.

B3: S440 (peptide)
peptide 1: ESFYDWFERQLGGGGK
peptide 2: EWAWVQCEVYGRGCPS
modifications: not fully specified (bridges); cysteine pairing not given here; also: C-terminus of chain 2 linked to Lys16 of chain 1, bond at chain A 16 to a chain's C-terminus
B3 yielded a Kd in assay [4] of 99 nM.

B4: B6Hα-3-F7-IR (peptide)
peptide: SRVAATKEKRPSDDPFYHKLSELLQGS
notes: as for B1
On to B4, for which, in assay [1], the “ratio over background (IGF-1R)” value was found to be 3.1 fold over background. Further, the “ratio over background (IR)” value in assay [2] stood at 1 fold over background.

B5: S444 (peptide)
peptide 1: ESFYDWFERQLGGGGK
peptide 2: VQCEVYGRGCPS
modifications: not fully specified (bridges); cysteine pairing not given here; also: C-C branched: chain 2 C-terminus bonded to Lys16 side chain
In the case of B5, binding in assay [4] was characterised by a dissociation constant (Kd) of 190 nM.

Turning to LCQSWGVRIGWLTGLCP [2A9], in the assay with Insulin Receptor (IR), the “% Binding” value is 100% and the “Result (RUs)” value worked out at 128 RU.

B6: 40F-4-B1-IGFR (peptide)
peptide: GLDHSDAVGVHLGFAWPAQARGRWEAGGLEDTWAGYDWL
notes: tags and coat protein not included; Formula 10 (Group 6) clone
On to B6, for which the “ratio over background (IGF-1R)” value in assay [1] turned out to be 3 fold over background. Moreover, the “ratio over background (IR)” value in assay [2] was 0.2 fold over background.

B7: B6Hα-3-F1-IR (peptide)
peptide: CSMAAVAEAGDDDDPFYHKLSELCQGS
notes: as for B1
As for B7, the “ratio over background (IGF-1R)” value in assay [1] worked out at 2.4 fold over background. Further, the “ratio over background (IR)” value in assay [2] worked out at 1.3 fold over background.

As to GAPVDQLHEDFYDWFVRQVSQAATG (on phage) [H2CA-2-B2-IGFR], the results for the ratio over background in assay [5] and in assay [6] were 1 ratio and 3.4 ratio, respectively.

B8: S441 (peptide)
peptide 1: ESFYDWFERQLGGGGK
peptide 2: WAWVQCEVYGRGCPS
modifications: not fully specified (bridges); cysteine pairing not given here; also: C-terminus of chain 2 linked to Lys16 of chain 1, bond at chain A 16 to a chain's C-terminus
B8: binding in assay [4] was characterised by a dissociation constant (Kd) of 120 nM.

B9: S423 (peptide)
peptide 1: ESFYDWFERQLGK
peptide 2: ACAWPTYWNCG
modifications: not fully specified (bridges); cysteine pairing not given here; also: C-terminus of chain 2 linked to Lys13 of chain 1, bond at chain A 13 to a chain's C-terminus
As to B9, in assay [4], the Kd came out at 62 nM.

Molecule GIISQSCPESFYDWFAGQVSDPWWCW (also called G33) [S326] registered a Kd in assay [3] of 590 nM.

B10: S442 (peptide)
peptide 1: ESFYDWFERQLGGGGK
peptide 2: AWVQCEVYGRGCPS
modifications: disulfide II:5-II:12 (inferred); also: bond at chain A 16 to a chain's C-terminus
The molecule B10 yielded a Kd in assay [4] of 160 nM.

Consider DRAFYNGLRDLVGAVYGAWD [20C11], for which, in the assay with Insulin Receptor (IR), the “% Binding” value is 38% and the “Result (RUs)” value amounted to 49 RU.

B11: 40F-4-D1-IGFR (peptide)
peptide: LSCLAYSRHGIWRPSTDLGLGRSVGEGSVSTRWRGYDWFE
notes: as for B6
Turning to B11, the “ratio over background (IGF-1R)” value in assay [1] came to 4.6 fold over background. The “ratio over background (IR)” value in assay [2] was determined as 0.3 fold over background.

B12: B6Hα-3-E6-IR (peptide)
peptide: CGAKMTGTPNDPFYHKLSELLQRG
notes: as for B1
On to B12, for which the “ratio over background (IGF-1R)” value in assay [1] turned out to be 2.3 fold over background. The “ratio over background (IR)” value in assay [2] is 1.2 fold over background.

B13: S433 (peptide)
peptide 1: ESFYDWFERQLGGGGK
peptide 2: WLDQEWAWVQ
modifications: also: C-terminus of chain 2 linked to Lys16 of chain 1, bond at chain A 16 to a chain's C-terminus
In assay [4], B13 yielded a Kd of 110 nM.

B14: 20E2A-4-G11-IGFR (peptide)
peptide: MNVFVSFYDAIDQLVCQRIGC
notes: as for B1
As for B14, the “ratio over background (IGF-1R)” value in assay [1] was 3.3 fold over background. In addition, the “ratio over background (IR)” value in assay [2] is 1.3 fold over background.

B15: 20E2Bβ-3-C7-IR (peptide)
peptide: QSGSGDFYDWLSRLIRGNGDG
notes: as for B1
Take B15: the “ratio over background (IGF-1R)” value in assay [1] was determined as 3.1 fold over background. The “ratio over background (IR)” value in assay [2] came out at 1.5 fold over background.

B16: S437 (peptide)
peptide 1: ESFYDWFERQLGGGGK
peptide 2: LDQEWAWVQCEVYGRGCPS
modifications: not fully specified (bridges); cysteine pairing not given here; also: C-terminus of chain 2 linked to Lys16 of chain 1, bond at chain A 16 to a chain's C-terminus
For B16, the Kd in assay [4] stood at 0.69 nM.

In assay [4], LDQEWAVQCEVYGRGCPSESFYDWFERQLG [S484] returned a Kd of 87 nM.

B17: S439 (peptide)
peptide 1: ESFYDWFERQLGGGGK
peptide 2: QEWAWVQCEVYGRGCPS
modifications: not fully specified (bridges); cysteine pairing not given here; also: C-terminus of chain 2 linked to Lys16 of chain 1, bond at chain A 16 to a chain's C-terminus
On to B17, for which, in assay [4], the Kd was determined as 46 nM.

B18: R20β-4-E8-IR (peptide)
peptide: VRGFQGGTVWPGYEWLRNAA
notes: as for B6
B18: the “ratio over background (IGF-1R)” value in assay [1] amounted to 34.9 fold over background. Besides, in assay [2], the “ratio over background (IR)” value was 3.6 fold over background.

B19: B6Hα-2-D8-IR (peptide)
peptide: SSETAKMVTGTRDDPFYHKLSELVQGS
notes: as for B1
Turning to B19, the “ratio over background (IGF-1R)” value in assay [1] was 3 fold over background. Moreover, the “ratio over background (IR)” value in assay [2] stood at 1 fold over background.

Consider KWLDQEWAWVQCEVYGRGCPSKK [D8 (synthetic peptide)], for which, in the assay with Insulin Receptor (IR), the “% Binding” value was 33% and the “Result (RUs)” value came out at 41.6 RU.

B20: S432 (peptide)
peptide 1: ESFYDWFERQLGGGGK
peptide 2: CEVYGRGCPS
modifications: not fully specified (bridges); cysteine pairing not given here; also: C-terminus of chain 2 linked to Lys16 of chain 1, bond at chain A 16 to a chain's C-terminus
With B20, the Kd in assay [4] turned out to be 180 nM.

B21: S443 (peptide)
peptide 1: ESFYDWFERQLGGGGK
peptide 2: WVQCEVYGRGCPS
modifications: not fully specified (bridges); cysteine pairing not given here; also: C-terminus of chain 2 linked to Lys16 of chain 1, bond at chain A 16 to a chain's C-terminus
B21: the Kd in assay [4] was 170 nM.

The molecule GSLDESFYDWFERQL [S395] registered a Kd in assay [3] of 81 nM.

B22: B6Hα-3-E5-IR (peptide)
peptide: RCGDEEGWQENRRDDPFYHKLSELFGGC
notes: as for B1
As for B22, the “ratio over background (IGF-1R)” value in assay [1] amounted to 2.9 fold over background. The “ratio over background (IR)” value in assay [2] is 1 fold over background.

B23: S438 (peptide)
peptide 1: ESFYDWFERQLGGGGK
peptide 2: DQEWAWVQCEVYGRGCPS
modifications: not fully specified (bridges); cysteine pairing not given here; also: C-terminus of chain 2 linked to Lys16 of chain 1, bond at chain A 16 to a chain's C-terminus
The molecule B23 had a Kd in assay [4] of 30 nM.

B24: 20E2A-3-A4-IGFR (peptide)
peptide: AGSVTSFYDAMEQLVATGTSA
notes: as for B1
Take B24: in assay [1], the “ratio over background (IGF-1R)” value amounted to 2.5 fold over background.

As for VTFTSAVFHENFYDWFVRQVS [H2], in the assay with Insulin Receptor (IR), the “% Binding” value came out at 27% and the “Result (RUs)” value amounted to 34.6 RU.
